Results from patent US20030165488A1.
Where two headings read alike, the source gives them in different places. Values belong to the molecule of their own block, whether it stands above or below them.

How the values were obtained:
[1] = test system: T1, hCaspase-12 (recombinant human caspase-12 containing the Ser-205 to Gly mutation), 6-His fusion protein expressed in E. coli
T1 sequence: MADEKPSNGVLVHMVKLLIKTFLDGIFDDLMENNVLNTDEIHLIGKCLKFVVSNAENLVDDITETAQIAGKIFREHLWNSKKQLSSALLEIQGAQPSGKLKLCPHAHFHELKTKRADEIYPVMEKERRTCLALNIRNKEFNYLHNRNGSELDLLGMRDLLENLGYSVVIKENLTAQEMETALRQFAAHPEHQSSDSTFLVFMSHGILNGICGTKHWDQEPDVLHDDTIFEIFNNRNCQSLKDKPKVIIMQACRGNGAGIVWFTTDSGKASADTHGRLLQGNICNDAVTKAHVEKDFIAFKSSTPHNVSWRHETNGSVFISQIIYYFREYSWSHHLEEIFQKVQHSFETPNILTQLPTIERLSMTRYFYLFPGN

[2] = test system: T2, ΔCARD caspase-12 (RIK-5), 6-His fusion protein expressed in E. coli
T2 sequence: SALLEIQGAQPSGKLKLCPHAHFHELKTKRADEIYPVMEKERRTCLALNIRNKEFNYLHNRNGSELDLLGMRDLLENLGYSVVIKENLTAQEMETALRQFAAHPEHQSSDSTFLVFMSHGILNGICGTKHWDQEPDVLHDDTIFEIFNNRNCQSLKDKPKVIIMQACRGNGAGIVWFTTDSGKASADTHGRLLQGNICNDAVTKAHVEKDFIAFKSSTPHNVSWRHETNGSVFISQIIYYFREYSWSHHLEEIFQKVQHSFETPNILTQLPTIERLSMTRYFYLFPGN

[3] = target: DEVD-R110 substrate (Homogeneous Caspase Assay, Roche Biochemicals); test: cell-based or functional assay
[4] = target: T3, DEVD-R110 substrate (Homogeneous Caspase Assay, Roche Biochemicals)
T3 chain: DEVD

[5] = target: T4, procaspase-3 immunoprecipitated from SH-EP cell lysates, P42574
T4 chain: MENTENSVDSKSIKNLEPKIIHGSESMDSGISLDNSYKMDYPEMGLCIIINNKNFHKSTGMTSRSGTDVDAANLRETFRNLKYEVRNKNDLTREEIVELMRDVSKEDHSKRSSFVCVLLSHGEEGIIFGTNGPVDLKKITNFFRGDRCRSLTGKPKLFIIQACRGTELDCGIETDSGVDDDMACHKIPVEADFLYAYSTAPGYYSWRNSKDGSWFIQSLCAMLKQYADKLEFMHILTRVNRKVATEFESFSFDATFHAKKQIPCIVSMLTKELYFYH

Molecule: calpain II (Calbiochem)
cleavage of human caspase-12, Western blot [1]: calpain II cleaves both hCaspase-12 and the ?CARD variant and that this cleavage is calcium dependent
cleavage of human caspase-12, Western blot [2]: calpain II cleaves both hCaspase-12 and the ?CARD variant and that this cleavage is calcium dependent

Measured fluorescence intensity (RFU), free rhodamine-110 released from DEVD-R110 [3]: 31 RFU
Molecule: control (non-caspase protein) preparation

B1: ΔCARD caspase-12 (RIK-5), 6-His fusion protein expressed in E. coli (protein)
chain: SALLEIQGAQPSGKLKLCPHAHFHELKTKRADEIYPVMEKERRTCLALNIRNKEFNYLHNRNGSELDLLGMRDLLENLGYSVVIKENLTAQEMETALRQFAAHPEHQSSDSTFLVFMSHGILNGICGTKHWDQEPDVLHDDTIFEIFNNRNCQSLKDKPKVIIMQACRGNGAGIVWFTTDSGKASADTHGRLLQGNICNDAVTKAHVEKDFIAFKSSTPHNVSWRHETNGSVFISQIIYYFREYSWSHHLEEIFQKVQHSFETPNILTQLPTIERLSMTRYFYLFPGN
Measured fluorescence intensity (RFU), free rhodamine-110 released from DEVD-R110 [4]: 445 for ?CARD

B2: hCaspase-12 (recombinant human caspase-12 containing the Ser-205 to Gly mutation), 6-His fusion protein expressed in E. coli (protein)
chain: MADEKPSNGVLVHMVKLLIKTFLDGIFDDLMENNVLNTDEIHLIGKCLKFVVSNAENLVDDITETAQIAGKIFREHLWNSKKQLSSALLEIQGAQPSGKLKLCPHAHFHELKTKRADEIYPVMEKERRTCLALNIRNKEFNYLHNRNGSELDLLGMRDLLENLGYSVVIKENLTAQEMETALRQFAAHPEHQSSDSTFLVFMSHGILNGICGTKHWDQEPDVLHDDTIFEIFNNRNCQSLKDKPKVIIMQACRGNGAGIVWFTTDSGKASADTHGRLLQGNICNDAVTKAHVEKDFIAFKSSTPHNVSWRHETNGSVFISQIIYYFREYSWSHHLEEIFQKVQHSFETPNILTQLPTIERLSMTRYFYLFPGN
Measured fluorescence intensity (RFU), free rhodamine-110 released from DEVD-R110 [4]: 807 for hCaspase-12
procaspase-3 processing, Western blot with antibody to full-length caspase-3 [5]: when procaspase-3 was incubated with recombinant human caspase-12 or the ?CARD variant, lower molecular weight bands indicative of cleaved mature subunits were observed
